Measured values as given in publication doi:10.1101/2023.09.24.559210.

Key:
[1] = biological target: nectin-1 C-terminal 10mer peptide, N-terminally FITC-conjugated; assay: fluorescence polarisation
[2] = biological target: JAM-A C-terminal 10mer peptide, N-terminally FITC-conjugated; assay: fluorescence polarisation
[3] = biological target: nectin-1 C-terminal 10mer peptide, N-terminally biotinylated; assay: BLI
[4] = biological target: JAM-A C-terminal 10mer peptide, N-terminally biotinylated; assay: BLI

B1: human afadin PDZ domain (domain or fragment)
chain: IITVTLKKQNGMGLSIVAAKGAGQDKLGIYVKSVVKGGAADVDGRLAAGDQLLSVDGRSLVGLSQERAAELMTRTSSVVTLEVAKQG
[1]
  Kd: 3 µM
[2]
  Kd: 5 µM
[3]
  Kd: 3 µM
  bond lifetime: 1.2 s
[4]
  Kd: 5 µM
  bond lifetime: 0.65 s
